According to PMC5548840, “The FAD synthetase from the human pathogen Streptococcus pneumoniae: a bifunctional enzyme exhibiting activity-dependent redox requirements” (Scientific Reports, 2017):
One block for each molecule: values may come before it.

Key:
SpnFADS [1] = target: T1, SpnFADS (Streptococcus pneumoniae, UniProt A0A0H2UPY5); experiment: isothermal titration calorimetry; assay type: binding; conditions: 20 mM PIPES pH 7.0, 20 °C, free enzyme
T1 construct: gene SP_1110; full length (modules 1-186 FMNAT, 187-305 RFK); N-terminal His6-PreScission tag removed; codon-optimised synthetic gene in modified pET-15b, E. coli BL21 Star (DE3); 34,521 Da; mainly monomer
T1 sequence (A0A0H2UPY5 entry or part of it): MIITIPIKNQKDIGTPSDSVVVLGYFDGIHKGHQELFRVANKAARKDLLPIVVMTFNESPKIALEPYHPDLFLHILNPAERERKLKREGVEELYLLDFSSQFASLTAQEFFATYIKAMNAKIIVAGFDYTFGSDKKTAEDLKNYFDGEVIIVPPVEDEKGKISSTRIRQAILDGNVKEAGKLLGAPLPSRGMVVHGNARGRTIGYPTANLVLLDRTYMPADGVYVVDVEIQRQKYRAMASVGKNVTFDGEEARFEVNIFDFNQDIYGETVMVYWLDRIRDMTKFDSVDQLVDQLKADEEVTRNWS
Text: isothermal titration calorimetry on SpnFADS

SpnFADS [2] = target: T1, SpnFADS; experiment: HPLC of flavin products, steady-state FMNAT activity; assay type: biochemical; conditions: 20 mM PIPES pH 7.0, 25 °C
Text: HPLC of flavin products, steady-state FMNAT activity on SpnFADS

SpnFADS [3] = target: T1, SpnFADS; experiment: HPLC of flavin products, steady-state RFK activity; assay type: biochemical; conditions: saturating ATP (412 μM), 20 mM PIPES pH 7.0, 25 °C, 0.8 mM MgCl2, no dithionite
Text: HPLC of flavin products, steady-state RFK activity on SpnFADS

[4] = SEC; 20 uM pure SpnFADS on a calibrated Superdex 200 10/300 GL column, 50 mM Tris/HCl, pH 8.0, 150 mM NaCl; freshly purified fraction considered as monomeric
[5] = target: FAD synthetase from Streptococcus pneumoniae (SpnFADS) (Streptococcus pneumoniae); experiment: atomic force microscopy; 0.5 uM SpnFADS on mica, with 250 uM ADP and 50 uM FMN; 20 mM PIPES, pH 6.0, 2 mM DTT, 0.8 mM MgCl2, room temperature
[6] = target: FAD synthetase from Streptococcus pneumoniae (SpnFADS) (Streptococcus pneumoniae); experiment: atomic force microscopy; 0.5 uM SpnFADS on mica, no ligand; 20 mM PIPES, pH 6.0, 2 mM DTT, 0.8 mM MgCl2, room temperature
[7] = target: FAD synthetase from Streptococcus pneumoniae (SpnFADS) (Streptococcus pneumoniae); experiment: atomic force microscopy; 0.5 uM SpnFADS on mica, with 250 uM ATP; 20 mM PIPES, pH 6.0, 2 mM DTT, 0.8 mM MgCl2, room temperature
[8] = target: FAD synthetase from Streptococcus pneumoniae (SpnFADS) (Streptococcus pneumoniae); experiment: atomic force microscopy; 0.5 uM SpnFADS on mica, with 250 uM ADP; 20 mM PIPES, pH 6.0, 2 mM DTT, 0.8 mM MgCl2, room temperature
[9] = target: FAD synthetase from Streptococcus pneumoniae (SpnFADS) (Streptococcus pneumoniae); experiment: atomic force microscopy; 0.5 uM SpnFADS on mica, with 50 uM FAD and 250 uM PPi; 20 mM PIPES, pH 6.0, 2 mM DTT, 0.8 mM MgCl2, room temperature
[10] = target: FAD synthetase from Streptococcus pneumoniae (SpnFADS) (Streptococcus pneumoniae); experiment: atomic force microscopy; 0.5 uM SpnFADS on mica, with 250 uM ATP and 50 uM FMN; 20 mM PIPES, pH 6.0, 2 mM DTT, 0.8 mM MgCl2, room temperature
[11] = target: FAD synthetase from Streptococcus pneumoniae (SpnFADS) (Streptococcus pneumoniae); experiment: atomic force microscopy; 0.5 uM SpnFADS on mica, with 250 uM ATP and 50 uM RF; 20 mM PIPES, pH 6.0, 2 mM DTT, 0.8 mM MgCl2, room temperature
[12] = target: FAD synthetase from Streptococcus pneumoniae (SpnFADS) (Streptococcus pneumoniae); experiment: cross-linking; pure SpnFADS in 50 mM KHPO4, pH 8.0, with BS3 crosslinker for 2 h at 4 °C, then 15% SDS-PAGE
[13] = 0.8 mM MgCl2, 4 mM sodium dithionite, 10 mM glucose, 0.5 U/mL glucose oxidase, reduced flavin, single site (FMNAT)

Molecule: Nc1ncnc2c1ncn2[C@@H]1O[C@H](COP(=O)(O)OP(=O)(O)O)[C@@H](O)[C@H]1O [ADP]
K d (μM) (SpnFADS [1]; no MgCl2, single site): 4.1 ± 20% μM

Molecule: Nc1ncnc2c1ncn2[C@@H]1O[C@H](COP(=O)(O)OP(=O)(O)OP(=O)(O)O)[C@@H](O)[C@H]1O [ATP]
K d (μM) (SpnFADS [1]; 0.8 mM MgCl2, single site): 9.4 ± 20% μM
K m ^ATP (μM) (SpnFADS [2]; FMN 27.7 µM for kcat, 0.8 mM MgCl2, 3 mM sodium dithionite): 31.6 ± 10% µM

Molecule: Cc1cc2nc3c(=O)[nH]c(=O)nc-3n(C[C@H](O)[C@H](O)[C@H](O)CO)c2cc1C [RF]
K m ^RF (μM) (SpnFADS [3]): 0.9 ± 10% μM

Molecule: Cc1cc2c(cc1C)N(C[C@H](O)[C@H](O)[C@H](O)COP(=O)(O)OP(=O)(O)OC[C@H]1O[C@@H](n3cnc4c(N)ncnc43)[C@H](O)[C@@H]1O)c1[nH]c(=O)[nH]c(=O)c1N2 [reduced FAD]
K d (μM) (SpnFADS [1]; [13]): 12.5 ± 20% μM

Molecule: Cc1cc2c(cc1C)N(C[C@H](O)[C@H](O)[C@H](O)COP(=O)(O)O)c1[nH]c(=O)[nH]c(=O)c1N2 [reduced FMN]
K d (SpnFADS [1]; [13]): 0.8 ± 20% μM
K m ^RF (μM) (SpnFADS [2]; saturating ATP (252 μM), 0.8 mM MgCl2, 3 mM sodium dithionite (flavin reduced)): 9.8 ± 10% µM

Molecule: FAD synthetase from Streptococcus pneumoniae (SpnFADS)
percent of the protein in the main peak at ~14.5 mL (monomers or dimers) [4]: ∼96% of the protein

% of features that are dimers [5]: 15%
% of features that are monomers [5]: 63%
% of features that are trimers [5]: 22%
% of molecules in dimers [5]: 19%
% of molecules in monomers [5]: 40%
% of molecules in trimers [5]: 41%
% of features that are dimers [6]: 3%
% of features that are monomers [6]: 97%
% of molecules in dimers [6]: 6%
% of molecules in monomers [6]: 94%
% of features that are dimers [7]: 12%
% of features that are monomers [7]: 70%
% of features that are trimers [7]: 18%
% of molecules in dimers [7]: 16%
% of molecules in monomers [7]: 47%
% of molecules in trimers [7]: 37%
% of features that are dimers [8]: 7%
% of features that are monomers [8]: 60%
% of features that are tetramers [8]: 20%
% of features that are trimers [8]: 13%
% of molecules in dimers [8]: 7%
% of molecules in monomers [8]: 31%
% of molecules in tetramers [8]: 47%
% of molecules in trimers [8]: 20%
% of features that are dimers [9]: 7%
% of features that are monomers [9]: 73%
% of features that are trimers [9]: 20%
% of molecules in dimers [9]: 9%
% of molecules in monomers [9]: 50%
% of molecules in trimers [9]: 41%
% of features that are dimers [10]: 7%
% of features that are monomers [10]: 73%
% of features that are trimers [10]: 20%
% of molecules in dimers [10]: 9%
% of molecules in monomers [10]: 50%
% of molecules in trimers [10]: 41%
% of features that are dimers [11]: 20%
% of features that are monomers [11]: 73%
% of features that are trimers [11]: 7%
% of molecules in dimers [11]: 30%
% of molecules in monomers [11]: 54%
% of molecules in trimers [11]: 16%
stoichiometry N [12]: 2
Molecule: FAD synthetase from Streptococcus pneumoniae (SpnFADS) (enzyme)
